# Data as given in patent US20190330277A1.
# B1: MPE8 Fab (Fab, V domains shown)
# VH: EVQLVESGGGLVKPGGSLRLSCAASGFTFSSYSMNWVRQAPGKGLEWVSSISASSSYSDYADSAKGRFTISRDNAKTSLFLQMNSLRAEDTAIYFCARARATGYSSITPYFDIWGQGTLVTVSS
# VL: QSVVTQTPSVSGAPGQRVTISCTGSSSNIGAGYDVHWYQQLPGTAPKLLIYDNNNRPSGVPDRFSASKSGTSASLAITGLQAEDEADYYCQSYDRNLSGVFGTGTKVTVL
# Target: bRSV ATue51908 postF (bovine respiratory syncytial virus, strain ATue51908), P22167
# Assay: biolayer interferometry (Octet), variant on Ni-NTA tip, Fab in solution
# Conditions: remark: other sources report otherwise
binder,measurement,value
B1,Kd,> 1000 nM
